{"source": "patent US20210041458A1", "about": "“Lectin Assay For Assessing Glycoforms As An Early Marker In Disease” (Baruch S. Blumberg Institute, priority 2009, published 2021)", "molecules": {"B1": {"name": "N224Q: mutant Aleuria aurantia lectin with N224 changed to glutamine (protein, UniProt P18891 2-313, looked up, variant N224Q)", "Fucose-specific lectin": "PTEFLYTSKIAAISWAATGGRQQRVYFQDLNGKIREAQRGGDNPWTGGSSQNVIGEAKLFSPLAAVTWKSAQGIQIRVYCVNKDNILSEFVYDGSKWITGQLGSVGVKVGSNSKLAALQWGGSESAPPNIRVYYQKSNGSGSSIHEYVWSGKWTAGASFGSTVPGTGIGATAIGPGRLRIYYQATDNKIREHCWDSNSWYVGGFSASASAGVSIAAISWGSTPQIRVYWQKGREELYEAAYGGSWNTPGQIKDASRPTPSLPDTFIAANSSGNIDISVFFQASGVSLQQWQWISGKGWSIGAVVPTGTPAGW", "modifications": "10xHis tag", "notes": "mutant Aleuria aurantia lectin with N224 changed to glutamine"}, "B2": {"name": "AAL M1(N129Q): recombinant 10× His-tagged mutant Aleuria aurantia lectin with N129 changed to glutamine (protein, UniProt P18891 2-313, looked up, variant N129Q)", "Fucose-specific lectin": "B1 Fucose-specific lectin with N129Q, Q224N", "modifications": "10xHis tag", "notes": "recombinant 10× His-tagged mutant Aleuria aurantia lectin with N129 changed to glutamine"}, "B3": {"name": "rAAL 10×: unbiotinylated recombinant 10×-His tagged wild-type AAL (protein, UniProt P18891 2-313, looked up)", "Fucose-specific lectin": "B1 Fucose-specific lectin with Q224N", "modifications": "10xHis tag", "notes": "unbiotinylated recombinant 10×-His tagged wild-type AAL"}, "B4": {"name": "AAL: 312 amino acid lectin with five binding sites for L-fucose or L-fucose-linked oligosaccharides (protein, UniProt P18891 2-313, looked up)", "Fucose-specific lectin": "B1 Fucose-specific lectin with Q224N"}, "B5": {"name": "commercial (Vector) AAL: untagged, commercially purchased AAL (Vector), eluted with L-fucose in manufacture (protein, UniProt P18891 2-313, looked up)", "Fucose-specific lectin": "B1 Fucose-specific lectin with Q224N"}, "B6": {"name": "rAAL: recombinant AAL produced in and isolated from bacteria using nickel affinity chromatography (protein, UniProt P18891 2-313, looked up)", "Fucose-specific lectin": "B1 Fucose-specific lectin with Q224N", "modifications": "His tag"}, "B7": {"name": "rAAL (N129Q, N224Q): recombinant 10×-His tagged mutant AAL with both N129Q and N224Q (protein, UniProt P18891 2-313, looked up, variant N129Q N224Q)", "Fucose-specific lectin": "B1 Fucose-specific lectin with N129Q", "modifications": "10xHis tag", "notes": "recombinant 10×-His tagged mutant AAL with both N129Q and N224Q"}}, "key": {"[1]": {"assay": "Selectivity for fucose linkage", "format": "binding"}, "[2]": {"tested_on": "IgG0 ligand", "assay": "IgG0 ligand binding to AAL proteins coated on nickel NTA plates, fluorescence readout", "set-up": "species or system human", "settings": "FIG. 2", "procedure": "Equal amounts of recombinant AAL (wild type or mutants) containing 10× Histidine tags were coated to nickel NT A plates and incubated with increasing amounts of IgG0 ligand (X axis). Un tagged, commercially purchased AAL (AAL-V) was also coated to nickel NT A plates or on high affinity binding ELISA plates (AAL-Vc) and incubated with increasing amounts of IgG0 ligand. Plates were washed and incubated with fluorescently tagged anti-human lgG, washed and read in a fluorescence detector. Increasing relative fluorescence indicates higher binding affinity."}, "[3]": {"tested_on": "IgG0 ligand", "assay": "Competition (indirect) ELISA: unbiotinylated AAL proteins against biotinylated AAL binding to IgG0 in serum", "set-up": "species or system human", "settings": "for decrease in signal output versus control: compared with commercial (Vector) AAL", "procedure": "96 well plates are coated with sodium periodate (NaIO4) treated mouse IgG (1.0 ug/well). 3 ul of serum from a patient with cirrhosis (Gish 342) or serum from normal donors (Sigma) were diluted to 100 ul and added to antibody coated wells. Plates are washed and then incubated at room temperature for 30 minutes/shaking with equivalent amounts of either unbiotinylated commercial (Vector) AAL, unbiotinylated recombinant 10×-His tagged (rAAL 10×), or unbiotinylated recombinant 10×-His tagged mutant AAL (rAAL N129Q, N224Q)). Equivalent amounts of biotinylated AAL was then added to each well and incubated for 1 hour at room temperature/shaking. Plates are washed and incubated with streptavidin-800-IRDye as previously described. Plates are washed and fluorescence quantified using a LiCor Odyssey machine. Control samples measured biotinylated AAL binding to IgG0 in the absence of unbiotinylated AAL.\nCompetition experiments provide an indirect ELISA for measuring the ability of unbiotinylated commercial (Vector) and unbiotinylated rAAL proteins to interfere with binding of biotinylated AAL to the IgG0 ligand. It is a qualitative indication of the relative affinities of the untagged AAL proteins for the IgG0 ligand."}, "[4]": {"settings": "multivalent; compared to other lectins; cited from earlier work"}, "[5]": {"assay": "Surface plasmon resonance, tryptophan fluorescence and enzyme linked lectin assays", "format": "binding", "settings": "rAAL from bacteria, isolated by nickel affinity chromatography", "procedure": "Quantitative equilibrium binding of mutant and wild-type AAL for the selection ligand and other L-fucopyranosyl oligosaccharides are determined by BIAcore analysis and enzyme linked lectin assays (Oiausson et al)."}, "[6]": {"settings": "serum from a cirrhotic patient (Gish 342), FIG. 3"}}, "note": "Positions count from the first letter of the chain named. In names and notes the source's numbering stands. Entries after “also recorded” stand apart in the source; their conditions may differ."}
{"molecule": "B1", "values": [{"measurement": "selectivity for the 1-6 linkage against outerarm linkages", "setting": "[1]", "value": "more selective for the 1-6 linkage than outerarm"}]}
{"molecule": "B2", "values": [{"measurement": "Limit of Detection", "setting": "[2]; IgG0 ligand", "value": 10, "unit": "ng/mL"}, {"measurement": "improvement of the Limit of Detection", "setting": "[2]; IgG0 ligand", "value": "10-100 fold"}, {"measurement": "signal to noise ratio", "setting": "[2]; increasing IgG0 ligand", "value": "highest signal to noise ratio"}]}
{"molecule": "B3", "values": [{"measurement": "decrease in signal output versus control", "setting": "[3]; [6]", "value": "greater decreases in signal output versus control"}]}
{"molecule": "B4", "values": [{"measurement": "binding affinity for carbohydrate ligands", "setting": "[4]", "value": "micromolar; also recorded: micrormolar"}]}
{"molecule": "B5", "values": [{"measurement": "signal output", "setting": "[3]; serum from a cirrhotic patient (Gish 342), control ~35, FIG. 3", "value": "~20"}]}
{"molecule": "B6", "values": [{"measurement": "affinity for the IgG0 ligand compared with commercially available AAL", "setting": "[3]; Example 1", "value": "higher affinity"}, {"measurement": "affinity in cirrhotic patients compared with controls", "setting": "[3]; serum samples, FIG. 3", "value": "significantly higher affinity"}, {"measurement": "binding affinities for fucosylated oligosaccharides compared with commercially prepared AAL", "setting": "[5]", "value": "substantially higher binding affinities"}]}
{"molecule": "B7", "values": [{"measurement": "decrease in signal output versus control", "setting": "[3]; [6]", "value": "greater decreases in signal output versus control"}]}
